# B1: TEAD2 YBD (Homo sapiens) (protein)
# chain: AWQARGLGTARLQLVEFSAFVEPPDAVDSYQRHLFVHISQHCPSPGAPPLESVDVRQIYDKFPEKKGGLRELYDRGPPHAFFLVKFWADLNWGPSGEEAGAGGSISSGGFYGVSSQYESLEHMTLTCSSKVCSFGKQVVEKVETERAQLEDGRFVYRLLRSPMCEYLVNFLHKLRQLPERYMMNSVLENFTILQVVTNRDTQELLLCTAYVFEVSTSERGAQHHIYRLVRD
# notes: The cDNA encoding human TEAD2 (residues 217-447, TEAD2^217-447) was cloned into a pET29 vector; made in house; host or cells: E. coli BL21(DE3)-T1R
# Substrate: CCCCCCCCCCCCCCCC(=O)SCCNC(=O)CCNC(=O)[C@H](O)C(C)(C)COP(=O)(O)OP(=O)(O)OC[C@H]1O[C@@H](n2cnc3c(N)ncnc32)[C@H](O)[C@@H]1OP(=O)(O)O
# Assay: TEAD2 YBD autopalmitoylation kinetics, palmitoyl-CoA dose-dependency
# Type: biochemical, human
# Conditions: other: recombinant TEAD2 YBD, alkyne palmitoyl-CoA, 3 min (FIG. 2J); pH 6.4
# Protocol: Intact mass spectrometry analysis of the recombinant TEAD2-YBD was carried out. The peak corresponding to unmodified TEAD2 at 26497 Dalton. A small side peak was also observed at 26736 Dalton (FIG. 2E), consistent with a palmitate modification to the protein. […] Moreover, autopalmitoylation of TEAD2 YBD was confirmed by acyl-biotin exchange (ABE) assay, which converts S-palmitoylation to stable biotinylation for detection (FIG. 2G). With 1 μM of palmitoyl-CoA at neutral pH, TEAD2 YBD was autopalmitoylated within 2 min, and the palmitoylation levels reached saturation after 10 min (FIG. 2H). To determine dose-dependency of palmitoyl-CoA, recombinant TEAD2 YBD was incubated with various concentrations of alkyne palmitoyl-CoA for 3 min, and the reaction rate was determined by quantifying the intensities of streptavidin blots (FIG. 2I). […] The physiological palmitoyl-CoA concentrations range from 100 nM to 10 μM in cells.
# Recombinant GST-TEAD2 or His6TEAD2 (500 ng) protein was incubated with the indicated concentrations of alkyne palmitoyl-CoA (Cayman Chemical) for 2 h or the indicated time in 50 mM MES, pH 6.4. […] Samples were analyzed by SDS-PAGE and streptavidin HRP. Bands intensity obtained from streptavidin blot were quantified using Image J (NIH) and the rate of palmitoylation in arbitrary unit was plotted against the concentration of palmitoyl-CoA. […]
protein,measurement,value
B1,Km,0.8 µM

# Reference: US10696642B2, “TEAD transcription factor autopalmitoylation inhibitors” (The General Hospital Corporation, priority 2015, dated 2020)
